B1: RIPK4 (parent)
chain: RERMELLEEAKKMEMAKFRYILPV

Variants of: B1
Assay: protein stability index of a GFP-peptide fusion (GPS, HEK-293T) (PSI 1-6); higher = more stable
Details: c terminus: a fixed tail appended
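Note: lentivirally expressed fusions sorted by FACS into six bins by GFP to DsRed ratio, PSI derived from sequencing read proportions per bin multiplied by bin number.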

Protein stability index, by site and new letter:
K11: V 2.32, N 3.08, P 2.91, M 2.45, D 4.09, C 2.24, S 3.37
A10: E 3.54, L 3.33, H 2.94, I 2.82, W 3.58, S 3.69, V 4.15, T 2.81, Y 3.93, K 4.38, P 3.28, C 4.69, N 3.85, D 3.99, R 3.66
R19: A 1.96, Q 3.65, S 2.86, T 2.67, M 1.97, H 2.6, N 2.94, L 2.14, P 2.13, F 1.15, K 3.04, Y 2.38, I 1.27
L6: W 3, R 3.56, K 3.88, Q 3.08, M 3.77, T 3.49, H 3.87, Y 3.83, I 3.98, G 3.54, D 4.56, A 3.19, V 2.9, C 3.05
A16: C 2.54, P 3.49, W 2.58, T 2.85, K 3.8, H 4.27, F 2.29, Y 3.32, V 3.03, N 4.29, I 3.02, Q 3.62
I21: F 4.25, G 3.68, R 3.2, L 3.42, W 2.05, E 4.11, N 3.85, Y 2.18
V24: T 3.78, K 3.58, H 3.24, R 3.65, F 3.16, M 3.68, E 4.32, S 3.7, D 3.64
Y20: I 1.93, D 2.55, F 2.27, W 2.24, M 2.18, V 2.59, P 3.57, C 2.67, N 3.05, S 3.91, G 3.74, H 2.83, E 4.16, A 3.73, Q 2.34
M13: S 3.51, Q 3.31, H 3.13, L 3.37, I 3.59, P 2.34, N 3.8, W 3.14, F 3.01, G 3.56, E 3.19, V 2.85, T 3.06, K 3.84
E9: L 1.94, C 2.12, W 2.16, I 2.57, G 3.79, N 3.44, Y 2.49, P 3.42, H 2.8, Q 3.31, T 2.93, K 3.65, M 2.78, A 2.85, S 3.08, F 2.37
R1: M 3.98, T 3.13, P 3.85, W 2.5, D 4.22, Q 3.9, L 4.16, I 3.29, C 2.88, N 4.13, H 4.5, S 3.53, V 3.83, A 3.83, G 3.79
M15: G 3.59, V 3.02, W 2, R 3.97, Q 3.34, H 4.28, P 4.15, F 3.91, L 3.48, E 4.61, I 4.15, Y 3.41, S 4.59
E5: G 2.6, K 2.36, F 2.81, N 2.87, V 2.29, P 3.01, L 2.75, H 1.99, A 2.9, Y 2.29, S 2.11, R 2.97, T 2.34, W 2.23, M 3.12, I 2.26

— the supplement of paper PMC10567573
